Laboratory results as given in US20220064327A1 (KYMAB, published 2022).

Experiments:
human factor IX = target: T1, human factor IX (human, UniProt P00740 47-461, 12 glutamic acid residues of the GLA domain are post-translationally γ-carboxylated); test: SPR, IgG captured on anti-human IgG Fc, human FIX as analyte
T1 construct: Zymogen used as analyte in SPR, reconstituted at 1 mg/ml; also called FIX; Human FIX (MW ~55 KDa)
Experimental: (§1) SPR was used to determine the binding affinity (KD) to FIX or FX respectively, the kinetic constants on-rate (kₒₙ) and off-rate (koff). Analyses was performed using a Biacore 8K (GE Healthcare) system.
(§2) Monospecific antibodies (referred as ligand) which had been purified on Protein A were captured onto the anti-human IgG Fc CM4 surface at approximately 2 μg/ml. The ligands were injected for 60 seconds at 10 μl/min in all the active channels of all 8 flow channels. The run was performed at 25° C. using neutral pH HBS-P 1X+CaCl₂ 2.5 mM as running buffer.
(§3) Human FIX (MW ˜55 KDa) or human FX (MW ˜58 KDa) was reconstituted at 1 mg/ml in the running buffer and used as analyte. The analyte was injected in multiple cycle kinetics (MCK) mode at 3 concentrations (1.5 μM, 500 nM and 166.7 nM) with 120 seconds association phase and 200 seconds (for FIX) or 300 seconds (for FX) dissociation phase, at flow rate […] in both active and reference channels. Three injections of 10 mM Glycine pH 1.5 for 60 sec. at 10 μl/min were used for the regeneration phase.

human factor X = target: T2, human factor X (human, UniProt P00742 41-179; P00742 183-488); test: SPR, IgG captured on anti-human IgG Fc, human FX as analyte
T2 construct: Zymogen used as analyte in SPR; also called FX; Human FX (MW ~58 KDa)
T2 sequence (P00742 41-179, chain 1 of 2): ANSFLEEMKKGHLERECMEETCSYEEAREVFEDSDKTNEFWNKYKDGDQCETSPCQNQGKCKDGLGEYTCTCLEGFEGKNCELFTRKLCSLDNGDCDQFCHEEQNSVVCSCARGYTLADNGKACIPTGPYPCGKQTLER
T2 sequence (P00742 183-488, chain 2 of 2): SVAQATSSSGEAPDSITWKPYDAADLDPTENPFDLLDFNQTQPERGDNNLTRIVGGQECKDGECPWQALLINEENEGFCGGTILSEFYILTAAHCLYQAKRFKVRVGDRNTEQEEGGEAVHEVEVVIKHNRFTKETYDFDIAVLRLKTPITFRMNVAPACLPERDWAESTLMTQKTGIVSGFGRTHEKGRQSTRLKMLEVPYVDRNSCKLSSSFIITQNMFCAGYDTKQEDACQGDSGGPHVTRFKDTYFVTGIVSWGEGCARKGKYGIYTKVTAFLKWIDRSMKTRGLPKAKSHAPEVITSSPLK
Experimental: as §1, §2, §3

T1 sequence (P00740 47-461 limits assumed): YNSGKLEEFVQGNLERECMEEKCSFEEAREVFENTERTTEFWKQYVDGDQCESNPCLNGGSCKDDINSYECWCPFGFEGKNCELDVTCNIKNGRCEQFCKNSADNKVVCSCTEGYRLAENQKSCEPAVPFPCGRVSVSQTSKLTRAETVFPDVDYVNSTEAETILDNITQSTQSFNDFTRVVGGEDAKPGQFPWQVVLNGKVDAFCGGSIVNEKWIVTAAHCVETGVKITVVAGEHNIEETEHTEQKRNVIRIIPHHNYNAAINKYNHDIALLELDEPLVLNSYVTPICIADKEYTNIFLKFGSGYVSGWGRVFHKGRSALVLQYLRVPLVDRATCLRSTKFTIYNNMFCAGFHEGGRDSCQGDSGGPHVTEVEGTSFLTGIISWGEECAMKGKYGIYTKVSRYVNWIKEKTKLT

Kd (human factor IX) [nM] | koff (human factor IX) [s⁻¹] | kon (human factor IX) [M⁻¹ s⁻¹] | Kd (human factor X) [nM] | koff (human factor X) [s⁻¹] | kon (human factor X) [M⁻¹ s⁻¹] | Binder
289 | 0.0535 | 185000 | – | – | – | NINA-0440.0128 (antibody, V domains shown) VH: EVQLVESGGGFVQPGGSLRLSCAVSGFTFNSYWMSWVRQAPGKGLEWVANINQDGSEKFYVASVKGRFTMSRDNAKKSVYVQMNSLRAEDTAVYYCAREGYSSNSYYGMDVWGQGTTVTVSS VL: SYVLTQPPSVSVAPGETARITCGGDNIGRKSVYWYQQKSGQAPVLVIYYDSDRPSGIPERFSGSNSGNTATLTISRVEAGDEADYYCQVWDGSSDHWVFGGGTKLTVL
– | – | – | 1150 | 0.0787 | 68400 | TINA-0215.0128 (antibody, V domains shown, Monospecific IgG4PE) VH: QVQLVQSGAEVKKPGASVKVSCKASRYSFTSYYMHWVRQAPGQGLEWMGIINPKSGSTSYAQKFQGRVTMTRDTSTSTVYMELSSLRSEDTAVYYCARDGYGSSSRCLQLWGQGTLVTVSS VL: SYVLTQPPSVSVAPGETARITCGGDNIGRKSVYWYQQKSGQAPVLVIYYDSDRPSGIPERFSGSNSGNTATLTISRVEAGDEADYYCQVWDGSSDHWVFGGGTKLTVL
– | – | – | 564 | 0.0574 | 102000 | TINA-0217.0128 (antibody, V domains shown, Monospecific IgG4PE) VH: QVQLVQSGAEVTKPGASVKVSCKASRYSFTSYYMHWVRQAPGQGLEWMGIINPKSGSTSYAQKFQGRVTMTRDTSTSTVYMELSSLRSEDTAVYYCARDGYGSSSRCLQLWGQGTLVTVSS VL: SYVLTQPPSVSVAPGETARITCGGDNIGRKSVYWYQQKSGQAPVLVIYYDSDRPSGIPERFSGSNSGNTATLTISRVEAGDEADYYCQVWDGSSDHWVFGGGTKLTVL
– | – | – | 718 | 0.0785 | 109000 | TINA-0204.0128 (antibody, V domains shown, Monospecific IgG4PE) VH: QVQLVQSGAEVQKTGASVKVSCKASRYSFTSYYMHWVRQAPGQGLEWMGIINPKSGSTSYAQKFQGRVTMTRDTSTSTVYMELSSLRSEDTAVYYCARDGYGSSSRCLQLWGQGTLVTVSS VL: SYVLTQPPSVSVAPGETARITCGGDNIGRKSVYWYQQKSGQAPVLVIYYDSDRPSGIPERFSGSNSGNTATLTISRVEAGDEADYYCQVWDGSSDHWVFGGGTKLTVL
267 | 0.0544 | 204000 | – | – | – | NINA-0445.0128 (antibody, V domains shown) VH: EVQLVESGGGFVQPGGSLRLSCAVSGFTFNSYWMSWVRQAPGKGLEWVANINQDGSEKFYVASVKGRFTMSRDNAKKSVYVQMNSLRAEDTAVYYCAREGYSSVSYYGMDVWGQGTTVTVSS VL: SYVLTQPPSVSVAPGETARITCGGDNIGRKSVYWYQQKSGQAPVLVIYYDSDRPSGIPERFSGSNSGNTATLTISRVEAGDEADYYCQVWDGSSDHWVFGGGTKLTVL
– | – | – | 680 | 0.0447 | 65700 | TINA-0211.0128 (antibody, V domains shown, Monospecific IgG4PE) VH: QVQLVQSGAEVKKPGASVKVSCKASRYSFTSYYMHWVRQAPGQGLEWMGIINPKSGSTSYAQKFQGRVTMTRDTSTSTVYMDLSSLRSEDTAVYYCARDGYGSSSRCLQLWGQGTLVTVSS VL: SYVLTQPPSVSVAPGETARITCGGDNIGRKSVYWYQQKSGQAPVLVIYYDSDRPSGIPERFSGSNSGNTATLTISRVEAGDEADYYCQVWDGSSDHWVFGGGTKLTVL
206 | 0.0445 | 216000 | – | – | – | NINA-0444.0128 (antibody, V domains shown) VH: EVQLVESGGGFVQPGGSLRLSCAVSGFTFNSYWMSWVRQAPGKGLEWVANINQDGSEKFYVASVKGRFTMSRDNAKKSVYVQMNSLRAEDTAVYYCAREGYSSTSYYGMDVWGQGTTVTVSS VL: SYVLTQPPSVSVAPGETARITCGGDNIGRKSVYWYQQKSGQAPVLVIYYDSDRPSGIPERFSGSNSGNTATLTISRVEAGDEADYYCQVWDGSSDHWVFGGGTKLTVL
– | – | – | 1150 | 0.0679 | 59000 | TINA-0209.0128 (antibody, V domains shown, Monospecific IgG4PE) VH: QVQLVQSGAEVQKPGASVKVSCKASRYSFTSYYLHWVRQAPGQGLEWMGIINPKTGDTSYAQKFQGRVTMTRDTSTTTVYMELSSLRSEDTAVYYCARDGYGSSARCLQLWGQGTLVTVSS VL: SYVLTQPPSVSVAPGETARITCGGDNIGRKSVYWYQQKSGQAPVLVIYYDSDRPSGIPERFSGSNSGNTATLTISRVEAGDEADYYCQVWDGSSDHWVFGGGTKLTVL
– | – | – | 847 | 0.141 | 166000 | TINA-0207.0128 (antibody, V domains shown, Monospecific IgG4PE) VH: QVQLVQSGAEVKKTGASVKVSCKASRYSFTSYYMHWVRQAPGQGLEWMGIINPKSGSTSYAQKFQGRVTMTRDTSTSTVYMELSSLRSEDTAVYYCARDGYGSSSRCLQLWGQGTLVTVSS VL: SYVLTQPPSVSVAPGETARITCGGDNIGRKSVYWYQQKSGQAPVLVIYYDSDRPSGIPERFSGSNSGNTATLTISRVEAGDEADYYCQVWDGSSDHWVFGGGTKLTVL
– | – | – | 974 | 0.0744 | 76400 | TINA-0210.0128 (antibody, V domains shown, Monospecific IgG4PE) VH: QVQLVQSGAEVKKPGASVKVSCKASRYSFTSYYMHWVRQAPGQGLEWMGIINPKSGSTSYAQKFQGRVTMTRDTSTSTVYMELNSLRSEDTAVYYCARDGYGSSSRCLQLWGQGTLVTVSS VL: SYVLTQPPSVSVAPGETARITCGGDNIGRKSVYWYQQKSGQAPVLVIYYDSDRPSGIPERFSGSNSGNTATLTISRVEAGDEADYYCQVWDGSSDHWVFGGGTKLTVL
242 | 0.0471 | 194000 | – | – | – | NINA-0442.0128 (antibody, V domains shown) VH: EVQLVESGGGFVQPGGSLRLSCAVSGFTFNSYWMSWVRQAPGKGLEWVANINQDGSEKFYVASVKGRFTMSRDNAKKSVYVQMNSLRAEDTAVYYCAREGYSSQSYYGMDVWGQGTTVTVSS VL: SYVLTQPPSVSVAPGETARITCGGDNIGRKSVYWYQQKSGQAPVLVIYYDSDRPSGIPERFSGSNSGNTATLTISRVEAGDEADYYCQVWDGSSDHWVFGGGTKLTVL
– | – | – | 880 | 0.0598 | 68000 | TINA-0203.0128 (antibody, V domains shown, Monospecific IgG4PE) VH: QVQLVQSGAEVKKPGASVKVSCKASRYSFTSYYMHWVRQAPGQGLEWMGIINPKSGSTSYAQKFQGRVTMTRDTSTSTVYMELISLRSEDTAVYYCARDGYGSSSRCLQLWGQGTLVTVSS VL: SYVLTQPPSVSVAPGETARITCGGDNIGRKSVYWYQQKSGQAPVLVIYYDSDRPSGIPERFSGSNSGNTATLTISRVEAGDEADYYCQVWDGSSDHWVFGGGTKLTVL
– | – | – | 992 | 0.0667 | 67200 | TINA-0206.0128 (antibody, V domains shown, Monospecific IgG4PE) VH: QVQLVQSGAEVKKPGASVKVSCKASRYSFTSYYMHWVRQAPGQGLEWMGIINPKSGDTSYAQKFQGRVTMTRDTSTSTVYMDLSSLRSEDTAVYYCARDGYGSSARCLQLWGQGTLVTVSS VL: SYVLTQPPSVSVAPGETARITCGGDNIGRKSVYWYQQKSGQAPVLVIYYDSDRPSGIPERFSGSNSGNTATLTISRVEAGDEADYYCQVWDGSSDHWVFGGGTKLTVL
– | – | – | 466 | 0.0558 | 120000 | TINA-0214.0128 (antibody, V domains shown, Monospecific IgG4PE) VH: QVQLVQSGAEVKKTGASVKVSCQASRYSFTSYYMHWVRQAPGQGLEWMGIINPKSGSTSYAQKFQGRVTMTRDTSTSTVYMELSSLRSEDTAVYYCARDGYGSSSRCLQLWGQGTLVTVSS VL: SYVLTQPPSVSVAPGETARITCGGDNIGRKSVYWYQQKSGQAPVLVIYYDSDRPSGIPERFSGSNSGNTATLTISRVEAGDEADYYCQVWDGSSDHWVFGGGTKLTVL
